Source: US20180346592A1 (MOGAM INSTITUTE FOR BIOMEDICAL RESEARCH, published 2018)

Tests used:
[1] = biological target: T1, GPC3 on the surface of hepatic cancer cell lines (SK-Hep1-GPC3 transfectant, HepG2, Huh7, Hep3B, SNU398) (human, UniProt P51654 25-554); test: FACS, HepG2 cells, 1 ug antibody; lower right panel
T1 construct: Species is not restated for the cells (hepatic cancer cell lines, or SK-Hep1 transfected with pCMV/GPC3); also called glypican 3

[2] = biological target: T1, GPC3 on the surface of hepatic cancer …; test: FACS, SK-Hep1-GPC3 cells, 1 ug antibody; lower right panel
Method: (§1) After detaching SK-Hep1-GPC3 cells by adding a TrypLE Express solution thereto, the detached SK-Hep1-GPC3 cells were put into a 50 mL tube and centrifuged at room temperature and 2000 rpm for 3 minutes to remove a culture medium, followed by washing with PBS once. The resultant was suspended using a FACS buffer, transferred to a round bottom tube, and centrifuged at room temperature and 2000 rpm for 3 minutes. A supernatant was removed, and the resultant was suitably dissolved using the FACS buffer so as to have a concentration of 4×10⁵ ea/mL. Then, a candidate antibody (1 μg) was added thereto at 4° C., and in an […] control group, a human IgG (1m, Sigma) was added instead of the candidate antibody. After 1 hour, the resultant was washed with the FACS buffer two times, a goat anti-human IgG antibody and FITC conjugated were added thereto at an amount of 1 μL per sample and bound thereto at 4° C. for 30 minutes. After collecting cells by centrifugation at 2000 rpm for 3 minutes, the cells were re-suspended by adding a fixation buffer (500 μL), and measured using a FACS calibur (FIG. 5).

[3] = biological target: T1, GPC3 on the surface of hepatic cancer …; test: FACS, HepG2 cells, 1 ug antibody; upper right panel (Synthetic library)
[4] = biological target: T1, GPC3 on the surface of hepatic cancer …; test: FACS, SK-Hep1-GPC3 #9 cells, 1 ug antibody; upper right panel
Method: as §1

Mean, FL2-H [1] | Mean, FL2-H [2] | Mean, FL2-H [3] | Mean, FL2-H [4] | Binder
6.12 | 13.7 |  |  | clone GX253 (scFv, V domains shown, scFv library clone tested as culture supernatant) VH: EVQLVESGGGLVKPGGSLRLSCAASGFTFSDYYMSWIRQAPGKGLEWVSYISSSGTTIYYADSVKGRFTISRDNAKKSLYLQMNSLRAEDTAVYYCARVRDSSGFWGRGTLVTVSS VL: QSVLTQPPSVSAAPGQKVTISCSGSSSNIGNNYVSWYQQLPGTAPKLLIYDNNKRPSGIPDRFSGSKSGTSATLGITGLQTGDEADYYCGTWDSSLSAWVVGGGTKLTVLG
 | 5.95 |  |  | clone GX118 (scFv, V domains shown, scFv library clone tested as culture supernatant) VH: QLQLQESGPGLVKPSETLSLTCTVSGGSISSSSYYWGWIRQPPGKGLEWIGSIYYSGSTYYNPSLKSRVTISVDTSKNQFSLKLSSVTAADTAVYYCARLRSFADNYVWGSYASYYFDYWGRGTLVTVSS VL: QSVVTQPPSVSAAPGQRVTISCSGSSSNIGNNFVSWHQQLPGTAPKLLIYDNNKRPSGIPDRFSGSKSGTSATLGITGLQTGDEADYYCGTWDNSLGTGVFGGGTKLTVLG
5.71 | 13.3 |  |  | clone GX248 (scFv, V domains shown, scFv library clone tested as culture supernatant) VH: QMQLVQSGAEVKKPGASVKVSCKASGGTFSSYAISWVRQAPGQGLEWMGGIIPIFGTANYAQKFQGRVTITADESTSTAYMELSSLRSEDTAVYYCARVRGTGPRGGTFDYWGQGTLVTVSS VL: QSVLTQPPSVSAAPGQKVTISCSGSSSNIGNNYVSWYQQLPGTAPKLLIYDNNKRPSGIPDRFSGSKSGTSATLGITGLQTGDEADYYCGTWDSSLSAWVFGGGTKLTVLG
5.62 | 13.3 |  |  | clone GX119 (scFv, V domains shown, scFv library clone tested as culture supernatant) VH: EVQLVESGGGVVQPGRSLRLSCAASGFTFSSYGMHWVRQAPGKGLEWVAVIWYDGSNKYYADSVKGRFTISRDNSKNTLYLQMNSLRAEDTAVYYCARDRSWNYYGMDVWGQGTTVTVSS VL: not shown
3.49 | 10.2 |  |  | clone GX090 (scFv, V domains shown, scFv library clone tested as culture supernatant) VH: QVQLVQSGAEVKKPGASVKVSCKASGYTFTSYGISWVRQAPGQGLEWMGWISAYNGNTNYAQKLQGRVTMTTDTSTSTAYMELRSLRSDDTAVYYCARGSSFSGFDPWGQGTLVTVSS VL: QSVLTQPPSLSAAPGQKVTISCSGSSSNIGKNHVSWYQQFPGTAPKFLIYDNHRRPSGIPDRFSGSKSGTSATLDITGLQTGDEATYYCGTWDSSLSAVVFGGGTKLTVLG
12.6 | 62.9 |  |  | clone GX234 (scFv, V domains shown, scFv library clone tested as culture supernatant) VH: QVQLVQSGAEVKKPGASVKVSCKASGYTFTSYGISWVRQAPGQGLEWMGWISAYNGNTNYAQKLQGRVTMTTDTSTSTAYMELRSLRSDDTAVYYCARVGLGDFWSGDYYYYYYGMDVWGQGTTVTVSS VL: SSELTQDPAVSVALGQTVRITCQGDSLRSSYASWYHQKPGQAPVLVMYGKNNRPSGIPDRFSGSSSGNTASLTITGAQAEDEADYYCHSRDSTGSHPNWVFGGGTKLTVLG
5.08 | 14.9 |  |  | clone GX206 (scFv, V domains shown, scFv library clone tested as culture supernatant) VH: QLQLQESGPGLVKPSETLSLTCTVSGGSISSSSYYWGWIRQPPGKGLEWIGSIYYSGSTYYNPSLKSRVTISVDTSKNQFSLKLSSVTAADTAVYYCARLGDYGGNGYYFDYWGQGTLVTVSS VL: QSVLTQPPSVSAASGQKVTVSCSGSSSNIGKNGVSWHQQLPGTAPKLLIYENNRRPSEIPDRFSGSKSGTSATLAITGLQTGDEADYYCGTWDSSLNAGVFGTGTKVTVLG
9.81 | 37.8 |  |  | clone GX225 (scFv, V domains shown, scFv library clone tested as culture supernatant) VH: QVQLVQSGAEVKKPGASVKVSCKASGYTFTSYYMHWVRQAPGQGLEWMGIINPSGGSTSYAQKFQGRVTMTRDTSTSTVYMELSSLRSEDTAVYYCARESGPSGGMDVWGQGTTVTVSS VL: SYELTQPPSVSVSPGQTARITCSGDALPKQYAYWYQQKPGQAPVLVIYKDSERPSGIPERFSGSSSGTTVTLTISGVQAEDEADYYCSSYTSSSTRVVFGGGTKLTVLG
13.2 | 40.1 |  |  | clone GX099 (scFv, V domains shown, scFv library clone tested as culture supernatant) VH: EVQLVESGAEVKKPGASVKVSCKASGYTFTSYYMHWVRQAPGQGLEWMGIINPSGGSTSYAQKFQGRVTMTRDTSTSTVYMELSSLRSEDTAVYYCARYSSSPAKIDYWGQGTLVTVSS VL: QSVLTQPPSVSAAPGEKVIISCSGSSSNIGKYYVSWYQQLPGTAPKLLIYDNNKRPSGIPDRFSGSKSGTSATLGISGLQTGDEADYYCGTWDSSLNLVFGTGTKVTVLG
5 | 9.91 |  |  | clone GX207 (scFv, V domains shown, scFv library clone tested as culture supernatant) VH: EVQLVQSGAEVKKPGASVKVSCKASGYTFTSYGISWVRQAPGQGLEWMGWISAYNGNTNYAQKLQGRVTMTTDTSTSTAYMELRSLRSDDTAVYYCAREGIAAAGYYYGMDVWGQGTTVTVSS VL: QSALTQPPSVSGSPGQSVTISCTGTSSDVGGYNRVSWYQQPPGTAPKLMIYEVSNRPSGVPDRFSGSKSGNTASLTISGLQAEDEADYYCSSYTSSTTYVFGTGTKVTVLG

Continued, binder first:

Binder | Mean, FL2-H [1] | Mean, FL2-H [2] | Mean, FL2-H [3] | Mean, FL2-H [4]
clone GS011 (scFv, V domains shown, scFv library clone tested as culture supernatant) VH: EVQLLESGGGLVQPGGSLRLSCAASGFTFSNYAMSWVRQAPGKGLEWVSGISPGGSSIYYADSVKGRFTISRDNSKNTLYLQMNSLRAEDTAVYYCARYAVYFLRSHGSYDYGMDVWGQGTLVTVSS VL: not shown |  |  | 6.5 | 22.9
clone GS013 (scFv, V domains shown, scFv library clone tested as culture supernatant) VH: EVQLLESGGGLVQPGGSLRLSCAASGFTFSNYAMSWVRQAPGKGLEWVSSISSGGGSTYYADSVKGRFTISRDNSKNTLYLQMNSLRAEDTAVYYCARKKSQFDYWGQGTLVTVSS VL: not shown |  |  | 6.07 | 7.43
clone GS009 (scFv, V domains shown, scFv library clone tested as culture supernatant) VH: EVQLLESGGGLVQPGGSLRLSCAASGFTFSNYSMSWVRLAPGKGLEWVSVISPSGGNTYYADSVKGRFTISRDNSKNTLYLQMNSLRAEHTAVYYCARYRVKQMLNQRSYSNAMDVWGQGTLVTVSS VL: QSVLTQPPSASGTPGQRVTISCTGSSSNIGNNYVSWYQQLPGTAPKLLIYDDSQRPSGVPDRFSGSKSGTSASLAISGLRSEDEADYYCGSWDASLSGYVFGGGTKLTVLG |  |  | 8.12 | 12.3
clone GS008 (scFv, V domains shown, scFv library clone tested as culture supernatant) VH: EVQLLESGGGLVQPGGSLRLSCAASGFTFSNYAMSWVRQAPGKGLEWVSVISPDNGSTYYADSVKGRFTISRDNSKNTLYLQMNSLRAEDTAVYYCARARVHCRRDQCYSYGMDVWGQGTLVTVSS VL: QSVLTQPPSASGTPGQRVTISCTGSSSNIGSNNVTWYQQLPGTAPKLLIYANSQRPSGVPDRFSGSKSGTSASLAISGLRSEDEADYYCGAWDSSLNGYVFGGGTKLTVLG |  |  | 8.85 | 4.89
clone GS001 (scFv, V domains shown, scFv library clone tested as culture supernatant) VH: EVQLLESGGGLVQPGGSLRLSCAASGFTFSSYSMSWVRQAPGKGLEWVSGISPSGGNKYYADSVKGRFTISRDNSKNTLYLQMNSLRAEDTAVYYCARALLGCKSAYCYYAMDVWGQGTLVTVSS VL: QSVLTQPPSASGTPGQRVTISCTGSSSNIGSNAVNWYQQLPGTAPKLLIYADSKRPSGVPDRFSGSKSGTSASLAISGLRSEDEADYYCGSWDSSLSGYVFGGGTKLTVLG |  |  | 8.76 | 5.32
clone GS007 (scFv, V domains shown, scFv library clone tested as culture supernatant) VH: EVQLLESGGGLVQPGGSLRLSCAASGFTFSNYSMSWVRQAPGKGLEWVSVISHDGRSKYYADSVKGRFAISRDNSKNTLYLQMNSLRAEDTAVYYCAKFRVWKRTNAHSYANAMDVWGQGTLVTVSS VL: QSVLTQPPSASGTPGQRATISCTGSSSNIGSNSVSWYQQLPGTAPKLLIYANSNRPSGVPDRFSGSKSGTSASLAISGLRSEDEADYYCGTWDASLSAYVFGGGTKLTVLG |  |  | 11.3 | 3.94
clone GS017 (scFv, V domains shown, scFv library clone tested as culture supernatant) VH: EVQLLESGGGLVQPGGSLRLSCAASGFTFSGYAMSWVRQAPGKGLEWVSGISPGDGSTYYADSVKGRFTISRDNSKNTLYLQMNSLRAEDTAVYYCARVARMCQGWRCSYADGMDVWGQGTLVTVSS VL: QSVLTQPPSASGTPGQRVTISCTGSSSNIGNNSVYWYQQLPGTAPKLLIYSDSHRPSGVPDRFSGSKSGTSASLAISGLRSEDEADYYCGTWDSSLSGYVFGGGTKLTVLG |  |  | 12.2 | 27.5
clone GS005 (scFv, V domains shown, scFv library clone tested as culture supernatant) VH: EVQLLESGGGLVQPGGSLRLSCAASGFTFSNYAMSWVRQAPGKGLEWVSVISPDSSSKYYADSVKGRFTISRDNSKNTLYLQMNSLRAEDTAVYYCARAAVRRYGPSPYYYYAMDVWGQGTLVTVSS VL: QSVLTQPPSASGTPGQRVTISCTGSSSNIGNNYVTWYQQLPGTAPKLLIYADSHRPSGVPDRFSGSKSGTSASLAISGLRSEDEADYYCATWDYSLSGYVFGGGTKLTVLG |  |  | 11 | 4.98
